For one assay, the target named is HLA-A*02:01. Kind of assay: IEDB peptide-MHC binding, purified MHC/competitive/radioactivity; ≥ and ≤ were set here for values at or beyond the usual limits of such assays. The following applies: source organism: Homo sapiens.
In the case of TLGTVILLV, the 50% inhibitory concentration (IC50) was determined as 60 nM.

Staying with this assay, now noted: source organism: Human gammaherpesvirus 8.
For the sequence LLGTWMFSV, the IC50 was 3 nM.
In the case of FKNSSNLFT, the half-inhibitory concentration (IC50) was found to be 64 nM.
Turning to SLVTGFINFI, the half-maximal inhibitory concentration (IC50) amounted to 238 nM.
As for ALIGTMCGIL, the 50% inhibitory concentration (IC50) worked out at 416 nM.
With FVAVHPVDV, the IC50 was 19 nM.
SVSDFDLRI: the half-inhibitory concentration (IC50) was 416 nM.
On the same count and under the same terms, the result for KLLGTWMFSV reads 3 nM; that for GALLPGNLV, 500 nM; that for RLYQASAVM, 277 nM.
Consider QLASILGCVD, for which the concentration for half-maximal inhibition (IC50) stood at 312 nM.
Same read-out and setting: then RLSNRICFWA, with 384 nM.
Same read-out and setting: then RLGAIPPLV, with 333 nM; and ATLGTVILL, with 178 nM.
Take ITATFTAPL: the 50% inhibitory concentration (IC50) stood at 38 nM.
In the case of ALIGTMCGI, the IC50 turned out to be 33 nM.
As to SVDFYQFRV, the IC50 turned out to be 312 nM.
Same read-out and setting: the result for FLYVVCSLA reads 4 nM.
With HLDFWHHEV, the IC50 was 20 nM.
With RIFYNILEI, the IC50 was found to be 62 nM.
In the case of FIALNLSFI, the half-inhibitory concentration (IC50) was found to be 78 nM.

Source of the values: the Immune Epitope Database (IEDB).
